Data reported in PMC4466390, “Canonical and Noncanonical Sites Determine NPT2A Binding Selectivity to NHERF1 PDZ1” (PLoS ONE, 2015).

B1: NHERF1 PDZ1 (11–120) [human] / rhodamine-labeled 22-residue carboxy-terminal NPT2A peptide [modified: 5-(and 6)-carboxytetramethylrhodamine (rhodamine label), coupled to the peptidyl resin after synthesis; 5-(and … (parent)
chain 1: LPRLCCLEKGPNGYGFHLHGEKGKLGQYIRLVEPGSPAEKAGLLAGDRLVEVNGENVEKETHQQVVSRIRAALNAVRLLVVDPETDEQLQKLGVQVREELLRAQEAPGQA
chain 2: ELPPATPSPRLALPAHHNATRL

Variants of: B1
Test: fluorescence polarisation
Settings: with rhodamine-labeled 22-residue carboxy-terminal NPT2A peptide [modified: 5-(and 6)-carboxytetramethylrhodamine (rhodamine label), labeled NPT2A peptide 1 µM, read at the highest PDZ1 concentration, est. ~120 µM, parent: 0.11, read off a plot

response | Variant
0.1 | chain 1 LPRLCCLEKGPNGYGFNLHGEKGKLGQYIRLVEPGSPAEKAGLLAGDRLVEVNGENVEKETHQQVVSRIRAALNAVRLLVVDPETDEQLQKLGVQVREELLRAQEAPGQA [chain 1 H17N]
0.096 | chain 1 LPRLCCLEKGPNGYGFHLHGEKGKLGQYIRLVDPGSPAEKAGLLAGDRLVEVNGENVEKETHQQVVSRIRAALNAVRLLVVDPETDEQLQKLGVQVREELLRAQEAPGQA [chain 1 E33D]
